Reference: patent US20200181238A1
Each block holds one molecule with its values, some of them ahead of it.

Assays:
[1] = target: ICAM-1 on tumor cells (HeLa, 8505C) (human) (UniProt P05362); assay: cell-based or functional assay
[2] = target: ICAM-1 on tumor cells (HeLa, 8505C) (human) (UniProt P05362); assay: estimated from titrated R65 antibody binding to HeLa cells
[3] = target: ICAM-1 on tumor cells (HeLa, 8505C) (human) (UniProt P05362); assay: flow cytometry, HeLa cells, R6.5 antibody at 10 µg/ml; ICAM-1 negative 293T control reads 0%
[4] = target: ICAM-1 on tumor cells (HeLa, 8505C) (human) (UniProt P05362); assay: flow cytometry, 8505C cells, R6.5 antibody at 10 µg/ml; ICAM-1 negative 293T control reads 0%

ICAM-1 on tumor cells (HeLa, 8505C) (human), sequence (P05362 28-532): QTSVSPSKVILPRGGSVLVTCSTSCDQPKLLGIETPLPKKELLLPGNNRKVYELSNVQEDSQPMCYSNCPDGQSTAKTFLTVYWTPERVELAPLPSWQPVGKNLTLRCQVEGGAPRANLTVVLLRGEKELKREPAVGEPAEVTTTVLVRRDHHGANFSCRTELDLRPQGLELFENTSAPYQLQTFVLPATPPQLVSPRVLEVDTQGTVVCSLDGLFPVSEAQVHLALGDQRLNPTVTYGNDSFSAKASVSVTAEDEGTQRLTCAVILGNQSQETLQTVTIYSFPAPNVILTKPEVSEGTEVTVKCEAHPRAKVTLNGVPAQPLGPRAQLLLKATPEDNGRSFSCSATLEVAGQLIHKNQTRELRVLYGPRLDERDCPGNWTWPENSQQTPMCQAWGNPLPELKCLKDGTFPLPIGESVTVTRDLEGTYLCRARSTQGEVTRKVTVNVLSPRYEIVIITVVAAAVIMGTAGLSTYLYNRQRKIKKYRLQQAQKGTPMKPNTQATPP

Molecule: R6.5-CAR (third generation anti-ICAM-1 chimeric antigen receptor on primary human T cells) (from UniProt P10747 153-220; Q07011 214-255; P20963 52-164) (scFv)
percent of 8505C cells viable after 24 hours with CAR T cells, E:T 2.5:1 (bioluminescence, normalized to non-transduced T cells) [1]: 52% | percent of HeLa cells viable after 24 hours with CAR T cells, E:T 2.5:1 (bioluminescence, normalized to non-transduced T cells) [1]: 17%

Kd [2]: 10 nM | % ICAM-1 positive cells [3]: 100% | % ICAM-1 positive cells [4]: 97%
B1: murine monoclonal anti-human ICAM-1 antibody R6.5 (antibody, from another filing, V domains shown)
VH: QVQLQQSGPELVRPGVSVKISCKGSGYTFIDYAIHWVKESHAKSLEWIGVISAYSGDTNYNQKFKGKATMTVDKSSNTAYLELARLTSEDSAIYYCARGGWLLLSFDYWGQGTTLTVSS
VL: DVVMTQSPLSLPVSLGDQASISCRSSQSLVHSNGNNYLHWYLQKSGQAPKLLIYKVSNRFSGVPDRFSGSGSGTDFTLKISRVEAEDLGVYFCSQSTHVPLTFGGGTKLEIKR
